One data set has as its system EL-4 tumours. Briefly: Apoptotic index of tumour sections (TUNEL, annexin-V-fluos). Format: in vivo, C57BL/6 mice. The settings on record: Example 7; vs mice fed control diet; P<0.001. The method, then: For in situ detection of apoptotic cells, tumors were excised and immediately frozen in dry ice, and stored at −70° C. Frozen serial sections of 6-μm thickness were fixed with paraformaldehyde solution (4% in PBS, pH 7.4), and permeabilized with a solution containing 0.1% Triton X-100 and 0.1% sodium citrate. They were incubated with 20 μl TUNEL reagent (In Situ apoptosis detection kit from Boehringer Mannheim, Germany) for 60 min at 37° C., and examined by fluorescence microscopy. Adjacent sections were counter-stained with haematoxylin to count the total number of cells, or the number of apoptotic cells in ten randomly selected fields (magnification of ×40). The apototic index (AI) was calculated as the number of apoptotic cells×100/total number of nucleated cells. For detection of apoptotic cells in vitro, the numbers of apoptotic and necrotic tumour cells were measured by staining with annexin-V-fluos, TUNEL, and trypan blue, as described previously (Kanwar, et al., 2001).
Sections were prepared from tumours of mice shown in FIGS. 4A and 4B at day 56 for the untreated control group fed the control diet, at day 70 for the groups fed either the control or iron-saturated bovine lactoferrin diet receiving paclitaxel and/or doxorubicin, and 7 days after treatment with drugs for mice fed the control diet. […]

Data set [1] in a line: Western blot detection of bovine lactoferrin in plasma, tumour and organs of fed mice. Format: in vivo. The settings on record: oral diet. The method, then: Groups of 5 tumour-bearing mice were fed either the control diet or an iron-saturated bovine lactoferrin diet and treated with paclitaxel or doxorubicin, as indicated. Mice were killed on days described in Example 6 and plasma collected. Referring to FIG. 6, plasma proteins (80 μg) were separated on a 10% polyacrylamide SDS-gel, transferred to a membrane, and blotted with an antibody against bovine lactoferrin (upper panel). The relative amounts of bovine lactoferrin in each lane were recorded by densitometry (lower panel). The order of the plasma samples shown in the histograph is the same for the Western blot. A 75 kDa band characteristic of lactoferrin was present in the plasma samples taken from all the different treatment groups fed bovine lactoferrin, whereas this same band was absent from the plasma of mice fed the control diet (FIG. 6).
Tumour homogenates and sections were screened to determine whether lactoferrin in the systemic circulation reached the tumour site. A group of 5 tumour-bearing mice were fed the control diet or an iron-saturated bovine lactoferrin diet, and treated with paclitaxel and doxorubicin. Mice were killed on days described in Example 6, and tissues from the tumour and small intestine were collected. Tumour and intestine homogenates (80 μg of protein) were separated on a 10% polyacrylamide SDS-gel, transferred to a membrane, and Western blotted with an antibody against bovine lactoferrin (upper panel of FIG. 7). The relative amounts of bovine lactoferrin in each lane were recorded by densitometry (lower panel of FIG. 7). The order of the plasma samples shown in the histograph is the same for the Western blot.
A group of 5 tumour-bearing mice were fed an iron-saturated bovine lactoferrin diet. Mice were killed on days described in Example 6, and tissues from multiple organs, including different regions of the intestine, were collected. Organ homogenates (80 μg of protein) were separated on a 10% polyacrylamide SDS-gel, transferred to a membrane, and blotted with either an antibody against bovine lactoferrin (upper panel of FIG. 8A) or an anti-α-tubulin mAb (middle panel of FIG. 8A). Bovine lactoferrin (1 μg) was included as a standard. The relative amounts of bovine lactoferrin in each lane were recorded by densitometry (lower panel of FIG. 8A). The order of the plasma samples shown in the histograph is the same for the Western blot. […] Roughly equal amounts of bovine lactoferrin were retained by the proximal and distal regions of the small intestine, and the large intestine.
In general terms: In western blotting, separated proteins are transferred to a membrane and probed.

Data set [2] concerns cultured EL-4 tumour cells. Briefly: Apoptosis of cultured EL-4 tumour cells triggered by sera of fed mice. To be noted: Example 17; sera after 6 weeks of 28 g per 2.4 Kg diet; vs spontaneous apoptosis; control-diet sera 80%. Format: cell-based, C57BL/6 mice. The method, then:
Feeding of Fe-saturated lactoferrin releases anti-tumour factors into the systemic circulation. Fifteen 8 to 9 week-old female C57BL/6 mice were fed the control AIN-93 diet or a diet supplemented with 28 g of 100% Fe-saturated lactoferrin per 2.4 Kg of diet. Sera was collected from experimental and control mice after 6 weeks of feeding the latter diets and tested for their ability to trigger the apoptosis of cultured EL-4 tumour cells.
Sera collected from experimental and control mice was tested for its ability to trigger the apoptosis of cultured EL-4 tumour cells. EL-4 cells (2×10^3) in 80 μl of DMEM media were incubated for 24 h in the presence or absence of 100 μl of sera that had been concentrated to 20 μl. The cells were then washed, permeabilized with a solution containing 0.1% Triton X-100 and 0.1% sodium citrate, and incubated with 20 μl of TUNEL reagent (In Situ apoptosis detection kit from Boehringer Mannheim, Germany) for 60 min at 37° C., and examined by fluorescence microscopy. Total numbers of cells were counted by staining the cells with methylene blue. The number of apoptotic cells was counted in ten randomly selected fields (magnification of ×40). The apototic index (AI) was calculated as the number of apoptotic cells×100/total number of nucleated cells.

The text below walks through data of patent US20090202574A1, “METHODS OF IMMUNE OR HAEMATOLOGICAL ENHANCEMENT, INHIBITING TUMOUR FORMATION OR GROWTH, AND TREATING OR PREVENTING CANCER” (priority 2004, published 2009).

B1: iron-saturated bovine lactoferrin: Iron-saturated bovine lactoferrin extract (100% saturated) prepared from natural bLf (protein)
chain: APRKNVRWCTISQPEWFKCRRWQWRMKKLGAPSITCVRRAFALECIRAIAEKKADAVTLDGGMVFEAGRDPYKLRPVAAEIYGTKESPQTHYYAVAVVKKGSNFQLDQLQGRKSCHTGLGRSAGWIIPMGILRPYLSWTESLEPLQGAVAKFFSASCVPCIDRQAYPNLCQLCKGEGENQCACSSREPYFGYSGAFKCLQDGAGDVAFVKETTVFENLPEKADRDQYELLCLNNSRAPVDAFKECHLAQVPSHAVVARSVDGKEDLIWKLLSKAQEKFGKNKSRSFQLFGSPPGQRDLLFKDSALGFLRIPSKVDSALYLGSRYLTTLKNLRETAEEVKARYTRVVWCAVGPEEQKKCQQWSQQSGQNVTCATASTTDDCIVLVLKGEADALNLDGGYIYTAGKCGLVPVLAENRKSSKHSSLDCVLRPTEGYLAVAVVKKANEGLTWNSLKDKKSCHTAVDRTAGWNIPMGLIVNQTGSCAFDEFFSQSCAPGADPKSRLCALCAGDDQGLDKCVPNSKEKYYGYTGAFRCLAEDVGDVAFVKNDTVWENTNGESTADWAKNLNREDFRLLCLDGTRKPVTEAQSCHLAVAPNHAVVSRSDRAAHVKQVLLHQQALFGKNGKNCPDKFCLFKSETKNLLFNDNTECLAKLGGRPTYEEYLGTEYVTAIANLKKCSTSPLLEACAFLTR
modifications: iron-saturated; Bovine Lactoferrin
notes: Iron-saturated bovine lactoferrin extract (100% saturated) prepared from natural bLf
As to B1, the “increase in the apoptotic index of tumours” value in the data set with EL-4 tumours was determined as 1.9 fold. The “state of bovine lactoferrin in plasma” value in data set [1] (Example 9, Western blot) is on record as “largely undegraded”. Moreover, the “75 kDa band characteristic of lactoferrin in plasma” value in data set [1] (Example 9, Western blot of plasma) is “present”. The “75 kDa band and partially degraded products in tumour and small intestine” value in data set [1] (Example 10, homogenates) is “present in homogenates of both the tumour and small intestine”. Also, the “bovine lactoferrin of 75 kDa in organs” value in data set [1] (Example 11, organ homogenates) is “present in all regions of the intestine, and in the liver, but it was also present in lesser amounts in spleen, heart, lung, kidney, and brain”. Moreover, the “increase in tumour cell apoptosis induced by sera” value in data set [2] stood at 300%.
